According to publication PMC4849863 (Nature structural & molecular biology, 2015):

T1: Cdc45 (S. cerevisiae), subunit of CMG (Saccharomyces cerevisiae, UniProt Q08032 1-650)
T1 sequence (looked up): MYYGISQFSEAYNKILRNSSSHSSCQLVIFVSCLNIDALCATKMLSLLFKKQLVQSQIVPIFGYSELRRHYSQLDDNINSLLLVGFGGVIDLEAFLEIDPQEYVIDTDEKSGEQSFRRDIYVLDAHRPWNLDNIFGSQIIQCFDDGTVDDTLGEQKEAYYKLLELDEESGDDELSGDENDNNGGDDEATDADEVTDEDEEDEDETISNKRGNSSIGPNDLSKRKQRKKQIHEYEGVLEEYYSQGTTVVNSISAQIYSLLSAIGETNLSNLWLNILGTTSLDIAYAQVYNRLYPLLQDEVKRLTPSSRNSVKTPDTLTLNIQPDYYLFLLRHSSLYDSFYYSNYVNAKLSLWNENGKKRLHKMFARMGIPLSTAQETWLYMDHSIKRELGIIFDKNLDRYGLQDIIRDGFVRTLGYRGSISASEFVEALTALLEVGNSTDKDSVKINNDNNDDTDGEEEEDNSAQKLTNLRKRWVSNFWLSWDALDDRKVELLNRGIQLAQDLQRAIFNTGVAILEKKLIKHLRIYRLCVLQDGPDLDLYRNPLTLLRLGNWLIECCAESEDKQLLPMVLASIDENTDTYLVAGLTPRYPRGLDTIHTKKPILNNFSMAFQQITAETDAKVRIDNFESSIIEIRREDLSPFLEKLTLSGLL

T2: Mcm5 (S. cerevisiae), subunit of CMG (Saccharomyces cerevisiae, UniProt P29496 1-775)
T2 sequence (looked up): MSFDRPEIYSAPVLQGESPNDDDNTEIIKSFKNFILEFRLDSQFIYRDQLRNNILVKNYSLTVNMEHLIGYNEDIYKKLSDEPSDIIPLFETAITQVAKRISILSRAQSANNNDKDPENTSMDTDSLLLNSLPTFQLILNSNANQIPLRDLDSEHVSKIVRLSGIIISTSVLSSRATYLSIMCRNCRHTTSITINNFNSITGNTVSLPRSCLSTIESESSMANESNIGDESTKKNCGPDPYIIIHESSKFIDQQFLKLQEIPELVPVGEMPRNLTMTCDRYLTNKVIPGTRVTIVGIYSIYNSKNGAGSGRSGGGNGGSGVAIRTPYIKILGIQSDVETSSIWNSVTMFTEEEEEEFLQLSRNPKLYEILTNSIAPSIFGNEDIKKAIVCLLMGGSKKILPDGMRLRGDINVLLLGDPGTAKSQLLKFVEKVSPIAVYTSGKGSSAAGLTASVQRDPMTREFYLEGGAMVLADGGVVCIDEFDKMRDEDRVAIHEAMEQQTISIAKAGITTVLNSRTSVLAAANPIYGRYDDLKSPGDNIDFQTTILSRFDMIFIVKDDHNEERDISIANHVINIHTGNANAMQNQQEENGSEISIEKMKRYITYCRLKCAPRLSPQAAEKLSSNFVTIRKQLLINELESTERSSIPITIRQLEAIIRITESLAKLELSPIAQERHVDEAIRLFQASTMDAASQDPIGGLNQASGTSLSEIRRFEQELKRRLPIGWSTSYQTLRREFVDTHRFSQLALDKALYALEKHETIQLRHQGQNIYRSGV

B1: GINS heterotetramer (Psf1, Psf2, Psf3, Sld5) of S. cerevisiae CMG (complex, Saccharomyces cerevisiae)
chain 1: MYGDLGNKLVLEAKRTKQLYARSNQDVNLPMYHEDIIRNILKEVSNLRKNTEYLKEQQQLGMLDDKVAKCQYFVTLLCMERNKRCLLAYQRLRTDILDSMAWNNNGLDLMSSITFSQQDTNNLSHQEQEYLKEYCDLITDLKSGDLVDIDLSGSLVPPSDVFIDVRVLKDAGEIQTEYGVFNLIKDSQFFVRQSDVERLIQQGYLQKI
chain 2: MSLPAHLQQTFSPEEIQFIVENEPIKIFPRITTRQKIRGDDRGTGNHTRWQLITTDDKALNNMVAMRSTEVVLWIALLLKQQSKCSIVAPQWLTTKELDRKIQYEKTHPDRFSELPWNWLVLARILFNKAKDDFHDPIHELRGKIQDLREIRQIKVLKGLKYLNESHLQLDNLSLLEINELRPFITEIMDKLREIHTASLTAGTENDEEEFNI
chain 3: MGYYDIDDVLADGTEFPCKFQYDIPGLGYLENNPGRPITKNTKLSLPLWLARILAIVGGDEALVDEEPVPFVELLPPDMFSTKVMNAIKTDPVALDLHSINSHFFSLAIKWIMLFSEKELANVVSELLLQRAQELNHHASSLSIDLNADSTGKNSANTNIATSTFLLKLEEMEKEIYKKSHESYKDTKRWMFKK
chain 4: MDINIDDILAELDKETTAVDSTKITQGSSSTTHRDANTIVGSSLDLNDKTQIYVSPQQDFSDLMKSWKNERCSPELLPYPHQLMKRLLNRISMQSQLIENISMGFLDMQNASNANPPMPNESKLPLLCMETELERLKFVIRSYIRCRLSKIDKFSLYLRQLNEDENSLISLTDLLSKDEIKYHDTHSLIWLKLVNDSILKYMPEELQAINDTEGSVNMIDEPDWNKFVFIHVNGPPDGKWNEDPLLQENEFGKPCYTVTIPDLKEEVELTIGSIYVMRYEVIRDLLRDDKVALI
B2: Psf1 (S. cerevisiae), subunit of GINS in CMG (natural protein, Saccharomyces cerevisiae, UniProt Q12488 1-208, looked up)
chain: B1 chain 1
B3: Dpb2 (S. cerevisiae), subunit of Pol ε (natural protein, Saccharomyces cerevisiae, UniProt P24482 1-689, looked up)
chain: MFGSGNVLPVKIQPPLLRPLAYRVLSRKYGLSIKSDGLSALAEFVGTNIGANWRQGPATIKFLEQFAAVWKQQERGLFIDQSGVKEVIQEMKEREKVEWSHEHPIQHEENILGRTDDDENNSDDEMPIAADSSLQNVSLSSPMRQPTERDEYKQPFKPESSKALDWRDYFKVINASQQQRFSYNPHKMQFIFVPNKKQNGLGGIAGFLPDIEDKVQMFLTRYYLTNDRVMRNENFQNSDMFNPLSSMVSLQNELSNTNRQQQSSSMSITPIKNLLGRDAQNFLLLGLLNKNFKGNWSLEDPSGSVEIDISQTIPTQGHYYVPGCMVLVEGIYYSVGNKFHVTSMTLPPGERREITLETIGNLDLLGIHGISNNNFIARLDKDLKIRLHLLEKELTDHKFVILGANLFLDDLKIMTALSKILQKLNDDPPTLLIWQGSFTSVPVFASMSSRNISSSTQFKNNFDALATLLSRFDNLTENTTMIFIPGPNDLWGSMVSLGASGTLPQDPIPSAFTKKINKVCKNVVWSSNPTRIAYLSQEIVIFRDDLSGRFKRHRLEFPFNESEDVYTENDNMMSKDTDIVPIDELVKEPDQLPQKVQETRKLVKTILDQGHLSPFLDSLRPISWDLDHTLTLCPIPSTMVLCDTTSAQFDLTYNGCKVINPGSFIHNRRARYMEYVPSSKKTIQEEIYI
B4: Dpb3 (S. cerevisiae), subunit of Pol ε (natural protein, Saccharomyces cerevisiae, UniProt P27344 1-201, looked up)
chain: MSNLVKEKAPVFPISKVKKIAKCDPEYVITSNVAISATAFAAELFVQNLVEESLVLAQLNSKGKTSLRLSLNSIEECVEKRDNFRFLEDAIKQLKKNSALDKKRELNMQPGRSDQEVVIEEPELHEDDGVEEEEEEDEVSEEEEPVHNEELLDDSKDQQNDKSTRSVASLLSRFQYKSALDVGEHSDSSDIEVDHTKSTDP
B5: Dpb4 (S. cerevisiae), subunit of Pol ε (natural protein, Saccharomyces cerevisiae, UniProt Q04603 1-196, looked up)
chain: MPPKGWRKDAQGNYPTTSYIKEQENITIQDLLFPKSTIVNLAREVPQQSGKKLLINKDASLALQRGATVFVNHLLLFAREIAKSQDKKSCSVDDVLSALDHIGHSALKGPVRDKLDEYQAAVEQRKKEKLDSGEVDADGDIDMGEDKENVPVEKVKEHDEIEEQGDALQDVEESSEKKQKTESQDVETRVQNLEQT
B6: 80/75mer unprimed fork (mixed)
DNA 1: CCCCCACCGATGTGGTAGGAAGTGAGAATTGGAGAGTGTGTTTTTTTTTTTTTTTTTTTTTTTTTTTTTTTTTTTTTTTT
DNA 2: TTTTTTTTTTTTTTTTTTTTTTTTTTTTTTTTTTTTTTTTCACACTCTCCAATTCTCACTTCCTACCACATCGGT

Tests used:
[1] = target: Mcm3 (S. cerevisiae), subunit of CMG (Saccharomyces cerevisiae, UniProt P24279 1-971); assay: cross-linking
[2] = target: B3; assay: cross-linking
[3] = target: T1, Cdc45 (S. cerevisiae), subunit of CMG; assay: cross-linking
[4] = target: T2, Mcm5 (S. cerevisiae), subunit of CMG; assay: cross-linking
[5] = target: CMG helicase (Cdc45-Mcm2-7-GINS, 11 subunits) (Saccharomyces cerevisiae, UniProt P29469;P24279;P30665;P29496;P53091;P38132;Q08032;Q12488;P40359;Q12146;Q03406 …); assay: EMSA

Mcm3 (S. cerevisiae), subunit of CMG, sequence (P24279 whole entry): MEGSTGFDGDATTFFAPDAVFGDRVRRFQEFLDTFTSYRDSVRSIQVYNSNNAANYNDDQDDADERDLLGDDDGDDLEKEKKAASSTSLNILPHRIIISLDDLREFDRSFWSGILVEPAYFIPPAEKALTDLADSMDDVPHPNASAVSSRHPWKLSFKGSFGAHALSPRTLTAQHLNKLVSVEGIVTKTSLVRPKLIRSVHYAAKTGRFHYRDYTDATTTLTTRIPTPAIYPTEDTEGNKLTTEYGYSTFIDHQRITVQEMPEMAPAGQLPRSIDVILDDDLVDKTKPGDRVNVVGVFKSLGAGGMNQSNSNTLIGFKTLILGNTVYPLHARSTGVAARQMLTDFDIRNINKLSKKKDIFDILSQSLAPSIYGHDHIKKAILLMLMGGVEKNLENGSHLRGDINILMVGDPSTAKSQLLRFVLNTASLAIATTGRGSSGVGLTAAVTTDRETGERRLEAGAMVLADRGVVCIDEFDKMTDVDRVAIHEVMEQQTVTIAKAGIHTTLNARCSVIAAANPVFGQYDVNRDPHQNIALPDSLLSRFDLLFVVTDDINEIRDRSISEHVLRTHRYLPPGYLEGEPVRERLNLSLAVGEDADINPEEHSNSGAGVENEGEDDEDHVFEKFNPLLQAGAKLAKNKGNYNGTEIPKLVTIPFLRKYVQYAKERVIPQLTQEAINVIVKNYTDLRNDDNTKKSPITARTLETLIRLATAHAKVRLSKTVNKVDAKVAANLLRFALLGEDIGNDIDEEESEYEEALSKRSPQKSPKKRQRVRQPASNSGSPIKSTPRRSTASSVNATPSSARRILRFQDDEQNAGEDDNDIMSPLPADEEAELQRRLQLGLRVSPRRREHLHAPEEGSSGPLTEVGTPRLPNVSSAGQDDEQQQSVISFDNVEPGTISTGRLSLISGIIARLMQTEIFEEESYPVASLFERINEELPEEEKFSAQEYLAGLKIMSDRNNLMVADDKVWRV

B1
binding result [1]: binds

B2
binding result [2]: binds
binding result [3]: binds

B3
binding result [4]: binds

B4
binding result [3]: binds

B5
binding result [3]: binds

B6
binding result [5]: binds
